Consider one molecule from paper PMC4757827 (2016).

The target of the assay is recombinant importin α1 (construct not stated for this experiment) (Homo sapiens (Human), UniProt P52292). Briefly: ELISA.

B1: IFN-γ (recombinant) (protein)
chain: QDPYVKEAENLKKYFNAGHSDVADNGTLFLGILKNWKEESDRKIMQSQIVSFYFKLFKNFKDDQSIQKSVETIKEDMNVKFFNSNKKKRDDFEKLTNYSVTDLNVQRKAIHELIQVMAELSPAAKTGKRKRSQMLFRG
Regarding B1, the binding result is listed as “no binding”.
